Measured values as given in US20190307836A1 (Bicycle, published 2019).
Starred links: 1 amine or outer side, 2 acyl side, 3 side chain; linkers in the order of their positions; H or OH if unused. Positions of bridges follow the written chain, without caps; N, C: chain ends. Non-standard residues stand in square brackets, D forms with d. Chains are numbered I, II in the order given. No end group written: not given here. *: point of attachment. TATA = O=C(CC[*:1])N1CN(C(=O)CC[*:2])CN(C(=O)CC[*:3])C1; Dap(PYA) = diaminopropionic acid bearing 4-pentynoyl; 1Nal = N[C@@H](Cc1cccc2ccccc12)C(=O)O; Hyp = O=C(O)[C@@H]1C[C@@H](O)CN1; hArg = N=C(N)NCCCC[C@H](N)C(=O)O; tBuAla = CC(C)(C)C[C@H](N)C(=O)O; Nle = CCCC[C@H](N)C(=O)O; Pent4ynoyl = C#CCCC(=O)*; Dap = NC[C@H](N)C(=O)O; βAla = NCCC(=O)O; Sar = CNCC(=O)O

B1: heterotandem bicyclic peptide complex BCY10575 (peptide)
peptide 1: A[hArg]DC[Hyp]LVNPLCLHP[dD]W[hArg]C
peptide 2: Ac-C[tBuAla]PE[dK](Pent4ynoyl)PYCFADPY[Nle]CA
modifications: linker I:4-I:11-I:18, II:1-II:8-II:15 via TATA; not fully specified (C-terminus); also: chains joined by PEG5 linker on chain 1 N-terminus, triazole to D-Lys(PYA)
B2: heterotandem bicyclic peptide complex BCY10574 (peptide)
peptide 1: A[hArg]DC[Hyp]LVNPLCLHP[dD]W[hArg]C
peptide 2: Ac-C[tBuAla]PK(Pent4ynoyl)[dA]PYCFADPY[Nle]CA
modifications: linker I:4-I:11-I:18, II:1-II:8-II:15 via TATA; not fully specified (C-terminus); also: chains joined by PEG5 linker on chain 1 N-terminus, triazole to K(PYA)
B3: heterotandem bicyclic peptide complex BCY10576 (peptide)
peptide 1: A[hArg]DC[Hyp]LVNPLCLHP[dD]W[hArg]C
peptide 2: Ac-C[tBuAla]PE[dA]PYCFADPY[Nle]C-{Dap(PYA)}
modifications: linker I:4-I:11-I:18, II:1-II:8-II:15 via TATA; not fully specified (C-terminus); also: chains joined by PEG5 linker on chain 1 N-terminus, triazole to Dap(PYA)
B4: heterotandem bicyclic peptide complex BCY10577 (peptide)
peptide 1: {Pent4ynoyl-βAla}-[Sar][Sar][Sar][Sar][Sar][Sar][Sar][Sar][Sar][Sar]A[hArg]DC[Hyp]LVNPLCLHP[dD]W[hArg]C
peptide 2: Ac-C[tBuAla]PE[dA]PYCFADPY[Nle]C[Dap]
modifications: linker I:14-I:21-I:28, II:1-II:8-II:15 via TATA; not fully specified (C-terminus); numbers in words are those of the source; also: chains joined by CH2 linker, triazole from PYA, linker on Dap side chain
B5: heterotandem bicyclic peptide complex BCY10568 (peptide)
peptide 1: {Pent4ynoyl-βAla}-[Sar][Sar][Sar][Sar][Sar][Sar][Sar][Sar][Sar][Sar]A[hArg]DC[Hyp]LVNPLCLHP[dD]W[hArg]C
peptide 2: Ac-C[tBuAla]PK[dA]PYCFADPY[Nle]CA
modifications: linker I:14-I:21-I:28, II:1-II:8-II:15 via TATA; not fully specified (C-terminus); numbers in words are those of the source; also: chains joined by PEG12 linker, triazole from PYA, linker on chain 2 Lys4 side chain
B6: heterotandem bicyclic peptide complex BCY10570 (peptide)
peptide 1: {Pent4ynoyl-βAla}-[Sar][Sar][Sar][Sar][Sar][Sar][Sar][Sar][Sar][Sar]A[hArg]DC[Hyp]LVNPLCLHP[dD]W[hArg]C
peptide 2: Ac-C[tBuAla]PE[dK]PYCFADPY[Nle]CA
modifications: linker I:14-I:21-I:28, II:1-II:8-II:15 via TATA; not fully specified (C-terminus); numbers in words are those of the source; also: chains joined by PEG12 linker, triazole from PYA, linker on chain 2 D-Lys side chain
B7: heterotandem bicyclic peptide complex BCY10578 (peptide)
peptide 1: {Pent4ynoyl-βAla}-[Sar][Sar][Sar][Sar][Sar][Sar][Sar][Sar][Sar][Sar]CP[1Nal][dD]CM[hArg]DWSTP[Hyp]WC
peptide 2: Ac-C[tBuAla]PE[dA]PYCFADPY[Nle]C[Dap]
modifications: linker I:11-I:15-I:25, II:1-II:8-II:15 via TATA; not fully specified (C-terminus); numbers in words are those of the source; also: linker to a chain's N/C-terminus via CH2
B8: heterotandem bicyclic peptide complex BCY11380 (peptide)
peptide 1: SDKCSAGWLTMCQXLHLCPSH
peptide 2: CXPEKPYCFADPYXCA
modifications: not fully specified; BCY8920: N-terminal acetyl; tBuAla1, D-Lys4 bearing the linker, Nle12; Ci, Cii, Ciii on TATA scaffold; BCY10861: N-terminal acetyl; K(PYA)9 bearing the linker; Ci, Cii, Ciii on TATA scaffold
B9: heterotandem bicyclic peptide complex BCY8939 (peptide)
peptide 1: CXDWCHWTFSHGHPC
peptide 2: ACIEEGQYCFADPYXC
modifications: BCY7732: N-terminal acetyl; Nle12; C-terminal Dap (diaminopropionic acid) bearing the linker; Ci, Cii, Ciii on TATA scaffold; BCY8938: N-terminal [PYA]-[B-Ala]-[Sar10]- (linker on PYA); HArg1; Ci, Cii, Ciii on TATA scaffold
B10: heterotandem bicyclic peptide complex BCY10569 (peptide)
peptide 1: {Pent4ynoyl-βAla}-[Sar][Sar][Sar][Sar][Sar][Sar][Sar][Sar][Sar][Sar]CP[1Nal][dD]CM[hArg]DWSTP[Hyp]WC
peptide 2: Ac-C[tBuAla]PE[dK]PYCFADPY[Nle]CA
modifications: linker I:11-I:15-I:25, II:1-II:8-II:15 via TATA; not fully specified (C-terminus, bridges); numbers in words are those of the source; also: chains joined by PEG12 linker, triazole from PYA, linker on chain 2 D-Lys side chain
B11: heterotandem bicyclic peptide complex BCY11018 (peptide)
peptide 1: SDKCSAGWLTMCQXLHLCPSH
peptide 2: CXPEKPYCFADPYXCA
modifications: not fully specified; BCY8920: N-terminal acetyl; tBuAla1, D-Lys4 bearing the linker, Nle12; Ci, Cii, Ciii on TATA scaffold; BCY10861: N-terminal acetyl; K(PYA)9 bearing the linker; Ci, Cii, Ciii on TATA scaffold
B12: heterotandem bicyclic peptide complex BCY11376 (peptide)
peptide 1: SDKCSAGWLTMCQXLHLCPSH
peptide 2: CXPKAPYCFADPYXCA
modifications: not fully specified; BCY8919: N-terminal acetyl; tBuAla1, Lys3 bearing the linker, D-Ala4, Nle12; Ci, Cii, Ciii on TATA scaffold; BCY10861: N-terminal acetyl; K(PYA)9 bearing the linker; Ci, Cii, Ciii on TATA scaffold
B13: heterotandem bicyclic peptide complex BCY10582 (peptide)
peptide 1: SDKCSAGWLTMCQXLHLC
peptide 2: CXPEAPYCFADPYXC
modifications: not fully specified; BCY9172: N-terminal acetyl; tBuAla1, D-Ala4, Nle12; C-terminal Dap (diaminopropionic acid) bearing the linker; Ci, Cii, Ciii on TATA scaffold; BCY10045: free N-terminus (NH2-); K(PYA)9 bearing the linker; Ci, Cii, Ciii on TATA scaffold
B14: heterotandem bicyclic peptide complex BCY11017 (peptide)
peptide 1: SDKCSAGWLTMCQXLHLCPSH
peptide 2: CXPKAPYCFADPYXCA
modifications: not fully specified; BCY8919: N-terminal acetyl; tBuAla1, Lys3 bearing the linker, D-Ala4, Nle12; Ci, Cii, Ciii on TATA scaffold; BCY10861: N-terminal acetyl; K(PYA)9 bearing the linker; Ci, Cii, Ciii on TATA scaffold
B15: heterotandem bicyclic peptide complex BCY10580 (peptide)
peptide 1: {Pent4ynoyl-βAla}-[Sar][Sar][Sar][Sar][Sar][Sar][Sar][Sar][Sar][Sar]SDKCSAGWLTMCQKLHLC
peptide 2: Ac-C[tBuAla]PE[dA]PYCFADPY[Nle]C[Dap]
modifications: linker I:14-I:22-I:28, II:1-II:8-II:15 via TATA; not fully specified (C-terminus); numbers in words are those of the source; also: linker to a chain's N/C-terminus via PEG12
B16: heterotandem bicyclic peptide complex BCY10567 (peptide)
peptide 1: {Pent4ynoyl-βAla}-[Sar][Sar][Sar][Sar][Sar][Sar][Sar][Sar][Sar][Sar]CP[1Nal][dD]CM[hArg]DWSTP[Hyp]WC
peptide 2: Ac-C[tBuAla]PK[dA]PYCFADPY[Nle]CA
modifications: linker I:11-I:15-I:25, II:1-II:8-II:15 via TATA; not fully specified (C-terminus, bridges); numbers in words are those of the source; also: chains joined by PEG12 linker, triazole from PYA, linker on chain 2 Lys4 side chain
B17: heterotandem bicyclic peptide complex BCY11379 (peptide)
peptide 1: SDKCSAGWLTMCQXLHLCPSH
peptide 2: CXPKAPYCFADPYXCA
modifications: not fully specified; BCY8919: N-terminal acetyl; tBuAla1, Lys3 bearing the linker, D-Ala4, Nle12; Ci, Cii, Ciii on TATA scaffold; BCY10861: N-terminal acetyl; K(PYA)9 bearing the linker; Ci, Cii, Ciii on TATA scaffold
B18: heterotandem bicyclic peptide complex BCY11377 (peptide)
peptide 1: SDKCSAGWLTMCQXLHLCPSH
peptide 2: CXPEKPYCFADPYXCA
modifications: not fully specified; BCY8920: N-terminal acetyl; tBuAla1, D-Lys4 bearing the linker, Nle12; Ci, Cii, Ciii on TATA scaffold; BCY10861: N-terminal acetyl; K(PYA)9 bearing the linker; Ci, Cii, Ciii on TATA scaffold

target: CD137 expressed on cells (CHO cells expressing CD137; Jurkat cells of the Promega CD137 luciferase reporter assay) (UniProt Q07011); test: cell-based or functional assay
Sequence (Q07011 24-255 limits assumed): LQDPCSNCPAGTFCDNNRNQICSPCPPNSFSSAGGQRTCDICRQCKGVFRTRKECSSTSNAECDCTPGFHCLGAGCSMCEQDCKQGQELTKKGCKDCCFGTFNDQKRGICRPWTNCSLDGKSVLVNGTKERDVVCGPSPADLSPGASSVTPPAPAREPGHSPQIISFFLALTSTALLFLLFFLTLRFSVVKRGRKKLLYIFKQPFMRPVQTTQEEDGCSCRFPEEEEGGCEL

Binder	EC50 (nM), CD137 reporter assay, co-culture with PC3 (EphA2)	Fold Induction over Background, CD137 reporter assay, co-culture with PC3 (EphA2)
B1	0.62 nM	38 fold
B2	1 nM	32 fold
B3	0.51 nM	38 fold
B4	0.28 nM	37 fold
B5	0.25 nM	32 fold
B6	0.41 nM	38 fold

target: CD137 expressed on cells (CHO cells expressing CD137); Jurkat cells of the Promega CD137 luciferase reporter … (UniProt Q07011 24-255, limits assumed); test: cell-based or functional assay
Sequence (Q07011 24-255 limits assumed): as above

Binder	EC50 (nM), CD137 reporter assay, co-culture with H1376 (Nectin4)	EC50 (nM), CD137 reporter assay, co-culture with RKO (PD-L1)	Fold Induction over Background, CD137 reporter assay, co-culture with MC38 (mouse PD-L1)	Fold Induction over Background, CD137 reporter assay, co-culture with H1376 (Nectin4)	Fold Induction over Background, CD137 reporter assay, co-culture with RKO (PD-L1)
B7	0.42 nM				
B8		34 nM			
B9			< 2 fold		
B10	1.2 nM			52 fold	
B11		27 nM			
B12		127 nM			
B13		28 nM			4 fold
B14		66 nM			
B15		28 nM			3 fold
B16	1.7 nM			45 fold	
B17		68 nM			
B18		40 nM			
